Each block holds one binder with its values, some of them ahead of it.
Assays:
[1] = biological target: Aβ1-28 peptide, biotinylated (Anaspec); experiment: ELISA, biotin-peptide on streptavidin, Ab 10 µg/ml; mean of 2, background subtracted; details: remark: other sources report otherwise
Aβ1-42 peptide = experiment: cell-based or functional assay
[2] = biological target: Peptide 31 of the Aβ1-42 overlapping peptide library; experiment: peptide library ELISA, Ab 10 µg/ml
[3] = biological target: Peptide 2 of the Aβ1-42 overlapping peptide library; experiment: peptide library ELISA, Ab 10 µg/ml
[4] = biological target: Peptide 22 of the Aβ1-42 overlapping peptide library; experiment: peptide library ELISA, Ab 10 µg/ml
[5] = biological target: Peptide 9 of the Aβ1-42 overlapping peptide library; experiment: peptide library ELISA, Ab 10 µg/ml
[6] = biological target: Peptide 23 of the Aβ1-42 overlapping peptide library; experiment: peptide library ELISA, Ab 10 µg/ml
[7] = biological target: Peptide 6 of the Aβ1-42 overlapping peptide library; experiment: peptide library ELISA, Ab 10 µg/ml
[8] = biological target: Peptide 15 of the Aβ1-42 overlapping peptide library; experiment: peptide library ELISA, Ab 10 µg/ml
[9] = biological target: Peptide 7 of the Aβ1-42 overlapping peptide library; experiment: peptide library ELISA, Ab 10 µg/ml
[10] = biological target: Peptide 14 of the Aβ1-42 overlapping peptide library; experiment: peptide library ELISA, Ab 10 µg/ml
[11] = biological target: Peptide 12 of the Aβ1-42 overlapping peptide library; experiment: peptide library ELISA, Ab 10 µg/ml
[12] = biological target: Peptide 8 of the Aβ1-42 overlapping peptide library; experiment: peptide library ELISA, Ab 10 µg/ml
[13] = biological target: Peptide 11 of the Aβ1-42 overlapping peptide library; experiment: peptide library ELISA, Ab 10 µg/ml
[14] = biological target: Peptide 29 of the Aβ1-42 overlapping peptide library; experiment: peptide library ELISA, Ab 10 µg/ml
[15] = biological target: Peptide 33 of the Aβ1-42 overlapping peptide library; experiment: peptide library ELISA, Ab 10 µg/ml
[16] = biological target: Peptide 20 of the Aβ1-42 overlapping peptide library; experiment: peptide library ELISA, Ab 10 µg/ml
[17] = biological target: Peptide 1 of the Aβ1-42 overlapping peptide library; experiment: peptide library ELISA, Ab 10 µg/ml
[18] = biological target: Peptide 4 of the Aβ1-42 overlapping peptide library; experiment: peptide library ELISA, Ab 10 µg/ml
[19] = biological target: Peptide 16 of the Aβ1-42 overlapping peptide library; experiment: peptide library ELISA, Ab 10 µg/ml
[20] = biological target: Peptide 30 of the Aβ1-42 overlapping peptide library; experiment: peptide library ELISA, Ab 10 µg/ml
[21] = biological target: Peptide 13 of the Aβ1-42 overlapping peptide library; experiment: peptide library ELISA, Ab 10 µg/ml
[22] = biological target: Peptide 26 of the Aβ1-42 overlapping peptide library; experiment: peptide library ELISA, Ab 10 µg/ml
[23] = biological target: Peptide 19 of the Aβ1-42 overlapping peptide library; experiment: peptide library ELISA, Ab 10 µg/ml
[24] = biological target: Peptide 32 of the Aβ1-42 overlapping peptide library; experiment: peptide library ELISA, Ab 10 µg/ml
[25] = biological target: Peptide 5 of the Aβ1-42 overlapping peptide library; experiment: peptide library ELISA, Ab 10 µg/ml
[26] = biological target: Peptide 24 of the Aβ1-42 overlapping peptide library; experiment: peptide library ELISA, Ab 10 µg/ml
[27] = biological target: Peptide 10 of the Aβ1-42 overlapping peptide library; experiment: peptide library ELISA, Ab 10 µg/ml
[28] = biological target: Peptide 3 of the Aβ1-42 overlapping peptide library; experiment: peptide library ELISA, Ab 10 µg/ml
[29] = biological target: Peptide 21 of the Aβ1-42 overlapping peptide library; experiment: peptide library ELISA, Ab 10 µg/ml
[30] = biological target: Peptide 18 of the Aβ1-42 overlapping peptide library; experiment: peptide library ELISA, Ab 10 µg/ml
[31] = biological target: Peptide 25 of the Aβ1-42 overlapping peptide library; experiment: peptide library ELISA, Ab 10 µg/ml
[32] = biological target: Peptide 28 of the Aβ1-42 overlapping peptide library; experiment: peptide library ELISA, Ab 10 µg/ml
[33] = biological target: Peptide 17 of the Aβ1-42 overlapping peptide library; experiment: peptide library ELISA, Ab 10 µg/ml
[34] = biological target: Peptide 27 of the Aβ1-42 overlapping peptide library; experiment: peptide library ELISA, Ab 10 µg/ml

Aβ1-42 peptide, sequence (peptide, as listed by the source): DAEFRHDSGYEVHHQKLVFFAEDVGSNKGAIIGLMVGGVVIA
Aβ1-28 peptide, biotinylated (Anaspec), sequence (chain, as listed by the source): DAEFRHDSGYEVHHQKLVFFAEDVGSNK

- O.D. [1]: 0.53 O.D.
B1: ACI-11-Ab-9 monoclonal antibody (antibody, V domains shown)
VL: QAVVTQESALTTSPGGTVILTCRSSTGAVTTSNYANWVQEKPDHLFTGLIGGTSNRAPGVPVRFSGSLIGDKAALTITGAQTEDDAMYFCALWYSTHYVFGGGTKVTVL
VH: QVQLQQSDAELVKPGASVKISCKVSGYTFTDHTIHWMKQRPEQGLEWIGYIYPRDGSTKYNEKFKGKATLTADKSSSTAYMQLNSLTSEDSAVYFCARDYGYAFDYWGQGTTLTVSS
modifications: here or on the partner: biotinylated (position not given)

- disaggregation of pre-aggregated Aβ1-42, thioflavin T assay, molar ratio 1:10 (Aβ1-42 peptide): 20%
- disaggregation of pre-aggregated Aβ1-42, thioflavin T assay, molar ratio 1:100 (Aβ1-42 peptide): 12%
- inhibition of Aβ1-42 aggregation, thioflavin T assay, antibody to Aβ1-42 molar ratio 1:10 (Aβ1-42 peptide): 51%
- inhibition of Aβ1-42 aggregation, thioflavin T assay, antibody to Aβ1-42 molar ratio 1:100 (Aβ1-42 peptide): 26%
- O.D. [2]: 0.31 O.D.
- O.D. [3]: 0.26 O.D.
- O.D. [4]: 0.21 O.D.
- O.D. [5]: 0.19 O.D.
- O.D. [6]: 0.2 O.D.
- O.D. [7]: 0.34 O.D.
- O.D. [8]: 0.32 O.D.
- O.D. [9]: 0.3 O.D.
- O.D. [10]: 0.3 O.D.
- O.D. [11]: 0.34 O.D.
- O.D. [12]: 0.21 O.D.
- O.D. [13]: 0.23 O.D.
- O.D. [14]: 0.27 O.D.
- O.D. [15]: 0.26 O.D.
- O.D. [16]: 0.22 O.D.
- O.D. [17]: 0.32 O.D.
- O.D. [18]: 0.36 O.D.
- O.D. [19]: 0.34 O.D.
- O.D. [20]: 0.29 O.D.
- O.D. [21]: 0.23 O.D.
- O.D. [22]: 0.25 O.D.
- O.D. [23]: 0.3 O.D.
- O.D. [24]: 0.31 O.D.
- O.D. [25]: 0.32 O.D.
- O.D. [26]: 0.18 O.D.
- O.D. [27]: 0.2 O.D.
- O.D. [28]: 0.37 O.D.
- O.D. [29]: 0.21 O.D.
- O.D. [30]: 0.3 O.D.
- O.D. [31]: 0.23 O.D.
- O.D. [32]: 0.26 O.D.
- O.D. [33]: 0.31 O.D.
- O.D. [34]: 0.26 O.D.
B2: ACI-24-Ab-3 monoclonal antibody (antibody, IgG1, V domains shown)
VH: QVQLQQSGAELARPGASVKLSCKASGYTFTSYGIRWVKQRTGQGLEWIGEICPRSGNTYYNEKFKGKATVTADKSSSTAYMELRSLTSEDSAVYFCARSIYYGRPYYFDYWGQGTTLTVSS
VL: DIVMTQSQLFMSTSVGDRVSVTCKASQNVATNVAWYQQKPGQSPKALIYSASYRYSGVPDRFTGSGSGTDFTLTISNVQSEDLAEYFCQQYNSYPLTFGAGTKLELK
